According to paper PMC11253607, “A conserved inhibitory interdomain interaction regulates DNA-binding activities of hybrid two-component systems in Bacteroides” (mBio, 2024):

How the values were obtained:
Experiment in all cases: Phos-tag gel autophosphorylation, initial rates, Michaelis-Menten fit
Assay type in all cases: biochemical, Bacteroides thetaiotaomicron
Settings in all cases: phospho-donor, 50 mM Tris pH 7.5, 100 mM NaCl, 5 mM BME, 5 mM MgSO4, 5 µM protein
NP(=O)(O)O [1] = test system: NP(=O)(O)O
Text: Phos-tag gel autophosphorylation, initial rates, Michaelis-Menten fit on BT3334-REC | RECs have higher kcat and lower Km values than RRs

NP(=O)(O)O [2] = test system: NP(=O)(O)O; remark: listed apart in the source
Text: Phos-tag gel autophosphorylation, initial rates, Michaelis-Menten fit on BT3334-RR | RECs have higher kcat and lower Km values than RRs

NP(=O)(O)O [3] = test system: NP(=O)(O)O; remark: listed apart in the source
Text: Phos-tag gel autophosphorylation, initial rates, Michaelis-Menten fit on BT4124-REC | RECs have higher kcat and lower Km values than RRs

NP(=O)(O)O [4] = test system: NP(=O)(O)O; remark: listed apart in the source
NP(=O)(O)O [5] = test system: NP(=O)(O)O; remark: listed apart in the source
Text: Phos-tag gel autophosphorylation, initial rates, Michaelis-Menten fit on BT4124-RR | RECs have higher kcat and lower Km values than RRs

NP(=O)(O)O [6] = test system: NP(=O)(O)O; remark: listed apart in the source
Text: Phos-tag gel autophosphorylation, initial rates, Michaelis-Menten fit on BT4663-REC | RECs have higher kcat and lower Km values than RRs

NP(=O)(O)O [7] = test system: NP(=O)(O)O; remark: listed apart in the source
Text: Phos-tag gel autophosphorylation, initial rates, Michaelis-Menten fit on BT4663-RR | RECs have higher kcat and lower Km values than RRs

BT3334-REC (Bacteroides thetaiotaomicron VPI-5482)
Km (NP(=O)(O)O [1]): 4.5 ± 0.8 mM
kcat (NP(=O)(O)O [1]): 0.02 ± 0.0017 s⁻¹

BT3334-RR (Bacteroides thetaiotaomicron VPI-5482)
Km (NP(=O)(O)O [2]): 7.8 ± 2.4 mM
kcat (NP(=O)(O)O [2]): 0.0095 ± 0.00083 s⁻¹

BT4124-REC (Bacteroides thetaiotaomicron VPI-5482)
Km (NP(=O)(O)O [3]): 10 ± 1 mM
kcat (NP(=O)(O)O [3]): 0.0233 ± 0.0017 s⁻¹

BT4124-REC (Bacteroides thetaiotaomicron VPI-5482; C1262A/H1263D)
Km (NP(=O)(O)O [4]): 13 ± 2 mM
kcat (NP(=O)(O)O [4]): 0.0267 ± 0.0017 s⁻¹

BT4124-RR (Bacteroides thetaiotaomicron VPI-5482)
Km (NP(=O)(O)O [5]): 17 ± 2 mM
kcat (NP(=O)(O)O [5]): 0.00833 ± 0.0005 s⁻¹

BT4124-RR (Bacteroides thetaiotaomicron VPI-5482; C1262A/H1263D)
Km (NP(=O)(O)O [4]): 8.5 ± 1.5 mM
kcat (NP(=O)(O)O [4]): 0.02 ± 0.0017 s⁻¹

BT4124-RR (Bacteroides thetaiotaomicron VPI-5482; C1262A/H1263G)
Km (NP(=O)(O)O [4]): 13 ± 3 mM
kcat (NP(=O)(O)O [4]): 0.0183 ± 0.0017 s⁻¹

BT4663-REC (Bacteroides thetaiotaomicron VPI-5482)
Km (NP(=O)(O)O [6]): 14 ± 4 mM
kcat (NP(=O)(O)O [6]): 0.0135 ± 0.0017 s⁻¹

BT4663-RR (Bacteroides thetaiotaomicron VPI-5482)
Km (NP(=O)(O)O [7]): 33 ± 6 mM
kcat (NP(=O)(O)O [7]): 0.0035 ± 0.00033 s⁻¹
